Results: patent publication EP4554620A1 (dated 2025)

What was measured:
[1] = molecular target: T1, Human TIGIT residues 23-128 ILE68A mutant (human, UniProt Q495A1 23-128); assay: SPR, TIGIT alanine mutants
T1 construct: not shown: C-terminal HIS tag
T1 chain: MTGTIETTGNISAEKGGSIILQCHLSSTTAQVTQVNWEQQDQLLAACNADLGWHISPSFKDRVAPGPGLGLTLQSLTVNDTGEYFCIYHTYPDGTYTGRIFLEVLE

[2] = molecular target: T2, Human TIGIT residues 23-128 LEU65A mutant (human, UniProt Q495A1 23-128); assay: SPR, TIGIT alanine mutants
T2 construct: not shown: C-terminal HIS tag
T2 chain: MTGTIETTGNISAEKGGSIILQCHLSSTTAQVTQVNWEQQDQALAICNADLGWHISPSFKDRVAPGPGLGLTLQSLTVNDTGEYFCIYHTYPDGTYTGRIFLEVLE

- fold lower binding affinity against WT TIGIT [1]: ~40 fold
- fold lower binding affinity against WT TIGIT [2]: ~25 fold
B1: Tiragolumab (antibody, V domains shown)
VH: EVQLQQSGPGLVKPSQTLSLTCAISGDSVSSNSAAWNWIRQSPSRGLEWLGKTYYRFKWYSDYAVSVKGRITINPDTSKNQFSLQLNSVTPEDTAVFYCTRESTTYDLLAGPFDYWGQGTLVTVSS
VL: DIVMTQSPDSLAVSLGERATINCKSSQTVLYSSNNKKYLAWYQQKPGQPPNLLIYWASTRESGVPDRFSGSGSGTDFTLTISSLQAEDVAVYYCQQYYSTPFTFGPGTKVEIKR
